Laboratory results published in patent US12180485B2, “Repressible control of gene expression” (TRUSTEES OF BOSTON UNIVERSITY, priority 2020, dated 2024).
“Also recorded” adds a separate entry of the source.

B1: SEQ ID NO: 796: inducible system polypeptide, probably Table 20 (GID-GAI) (protein)
chain: MAPKKKRKVGIHGVPAAKRDHHHHHHQDKKTMMMNEEDDGNGMDELLAVLGYKVRSSEMADVAQKLEQLEVMMSNVQEDDLSQLATETVHYNPAELYTWLDSMLTDLNSGGSGSGSSGGSGTSYDELKALADTFSLDENGNKLKKGKHGMRNFIINNVISNKRFHYLIRYGDPAHLHEIAKNEAVVKFVLGRIADIQKKQGQNGKNQIDRYYETCIGKDKGKSVSEKVDALTKIITGMNYDQFDKKRSVIEDTGRENAEREKFKKIISLYLTVIYHILKNIVNINARYVIGFHCVERDAQLYKEKGYDINLKKLEEKGFSSVTKLCAGIDETAPDKRKDVEKEMAERAKESIDSLESANPKLYANYIKYSDEKKAEEFTRQINREKAKTALNAYLRNTKWNVIIREDLLRIDNKTCTLFRNKAVHLEVARYVHAYINDIAEVNSYFQLYHYIMQRIIMNERYEKSSGKVSEYFDAVNDEKKYNDRLLKLLCVPFGYCIPRFKNLSIEALFDRNEAAKFDKEKKKVSGNSGSGPKKKRKV
B2: SEQ ID NO: 800: inducible system polypeptide, probably Table 20 (GID-GAI) (protein)
chain: MAPKKKRKVGIHGVPAAKRDHHHHHHQDKKTMMMNEEDDGNGMDELLAVLGYKVRSSEMADVAQKLEQLEVMMSNVQEDDLSQLATETVHYNPAELYTWLDSMLTDLNSGGSGSGSSGGSGTALADTFSLDENGNKLKKGKHGMRNFIINNVISNKRFHYLIRYGDPAHLHEIAKNEAVVKFVLGRIADIQKKQGQNGKNQIDRYYETCIGKDKGKSVSEKVDALTKIITGMNYDQFDKKRSVIEDTGRENAEREKFKKIISLYLTVIYHILKNIVNINARYVIGFHCVERDAQLYKEKGYDINLKKLEEKGFSSVTKLCAGIDETAPDKRKDVEKEMAERAKESIDSLESANPKLYANYIKYSDEKKAEEFTRQINREKAKTALNAYLRNTKWNVIIREDLLRIDNKTCTLFRNKAVHLEVARYVHAYINDIAEVNSYFQLYHYIMQRIIMNERYEKSSGKVSEYFDAVNDEKKYNDRLLKLLCVPFGYCIPRFKNLSIEALFDRNEAAKFDKEKKKVSGNSSGSGPKKKRKV
B3: SEQ ID NO: 797: inducible system polypeptide, probably Table 20 (GID-GAI) (protein)
chain: MLDLASLILIEKKKSFAKGMGVKSTLVSGSKVYMTTFAEGSDARLEKIVEGDSIRSVNEGEAFSAEMADKNAGYKIGNAKFSHPKGYAVVANNPLYTGPVQQDMLGLKETLEKRYFGESADGNDNICIQVIHNILDIEKILAEYITNAAYAVNNISGLDKDIIGFGKFSTVYTYDEFKDPEHHRAAFNNNDKLINAIKAQYDEFDNFLDNPRLGYFGQAFFSKEGRNYIINYGNECYDILALLSGLRHWVVHNNEEESRISRTWLYNLDKNLDNEYISTLNYLYDRITNELTNSFSKNSAANVNYIAETLGINPAEFAEQYFRFSIMKEQKNLGFNITKLREVMLDRKDMSEIRKNHKVFDSIRTKVYTMMDFVIYRYYIEEDAKVAAANKSLPDNEKSLSEKDIFVINLRGSFNDDQKDALYYDEANRIWRKLENIMHNIKEFRGNKTREYKKKDAPRLPRILPAGRDVSAFSKLMYALTMFLDGKEINDLLTTLINKFDNIQSFLKVMPLIGVNAKFVEEYAFFKDSAKIADELRLIKSFARMGEPIADARRAMYIDAIRILGTNLSGGSGSGSSGGSGTMAASDEVNLIESRTVVPLNTWVLISNFKVAYNILRRPDGTFNRHLAEYLDRKVTANANPVDGVFSFDVLIDRRINLLSRVYRPAYADQEQPPSILDLEKPVDGDIVPVILFFHGGSFAHSSANSAIYDTLCRRLVGLCKCVVVSVNYRRAPENPYPCAYDDGWIALNWVNSRSWLKSKKDSKVHIFLAGDSSGGNIAHNVALRAGESGIDVLGNILLNPMFGGNERTESEKSLDGKYFVTVRDRDWYWKAFLPEGEDREHPACNPFSPRGKSLEGVSFPKSLVVVAGLDLIRDWQLAYAEGLKKAGQEVKLMHLEKATVGFYLLPNNNHFHNVMDEISAFVNAECLDLASLIL
B4: SEQ ID NO: 793: inducible system polypeptide, probably Table 20 (GID-GAI) (protein)
chain: MLDLASLILIEKKKSFAKGMGVKSTLVSGSKVYMTTFAEGSDARLEKIVEGDSIRSVNEGEAFSAEMADKNAGYKIGNAKFSHPKGYAVVANNPLYTSGGSGSGSSGGSGTMAASDEVNLIESRTVVPLNTWVLISNFKVAYNILRRPDGTFNRHLAEYLDRKVTANANPVDGVFSFDVLIDRRINLLSRVYRPAYADQEQPPSILDLEKPVDGDIVPVILFFHGGSFAHSSANSAIYDTLCRRLVGLCKCVVVSVNYRRAPENPYPCAYDDGWIALNWVNSRSWLKSKKDSKVHIFLAGDSSGGNIAHNVALRAGESGIDVLGNILLNPMFGGNERTESEKSLDGKYFVTVRDRDWYWKAFLPEGEDREHPACNPFSPRGKSLEGVSFPKSLVVVAGLDLIRDWQLAYAEGLKKAGQEVKLMHLEKATVGFYLLPNNNHFHNVMDEISAFVNAECLDLASLIL
B5: 559/560: RfxCas13d split between residues 559/560; N and C fragments plain or fused to CID domains (protein)
chain 1: IEKKKSFAKGMGVKSTLVSGSKVYMTTFAEGSDARLEKIVEGDSIRSVNEGEAFSAEMADKNAGYKIGNAKFSHPKGYAVVANNPLYTGPVQQDMLGLKETLEKRYFGESADGNDNICIQVIHNILDIEKILAEYITNAAYAVNNISGLDKDIIGFGKFSTVYTYDEFKDPEHHRAAFNNNDKLINAIKAQYDEFDNFLDNPRLGYFGQAFFSKEGRNYIINYGNECYDILALLSGLRHWVVHNNEEESRISRTWLYNLDKNLDNEYISTLNYLYDRITNELTNSFSKNSAANVNYIAETLGINPAEFAEQYFRFSIMKEQKNLGFNITKLREVMLDRKDMSEIRKNHKVFDSIRTKVYTMMDFVIYRYYIEEDAKVAAANKSLPDNEKSLSEKDIFVINLRGSFNDDQKDALYYDEANRIWRKLENIMHNIKEFRGNKTREYKKKDAPRLPRILPAGRDVSAFSKLMYALTMFLDGKEINDLLTTLINKFDNIQSFLKVMPLIGVNAKFVEEYAFFKDSAKIADELRLIKSFARMGEPIADARRAMYIDAIRILGTNL
chain 2: SYDELKALADTFSLDENGNKLKKGKHGMRNFIINNVISNKRFHYLIRYGDPAHLHEIAKNEAVVKFVLGRIADIQKKQGQNGKNQIDRYYETCIGKDKGKSVSEKVDALTKIITGMNYDQFDKKRSVIEDTGRENAEREKFKKIISLYLTVIYHILKNIVNINARYVIGFHCVERDAQLYKEKGYDINLKKLEEKGFSSVTKLCAGIDETAPDKRKDVEKEMAERAKESIDSLESANPKLYANYIKYSDEKKAEEFTRQINREKAKTALNAYLRNTKWNVIIREDLLRIDNKTCTLFRNKAVHLEVARYVHAYINDIAEVNSYFQLYHYIMQRIIMNERYEKSSGKVSEYFDAVNDEKKYNDRLLKLLCVPFGYCIPRFKNLSIEALFDRNEAAKFDKEKKKVSGNS
B6: SEQ ID NO: 792: inducible system polypeptide, probably Table 20 (GID-GAI) (protein)
chain: MAPKKKRKVGIHGVPAAKRDHHHHHHQDKKTMMMNEEDDGNGMDELLAVLGYKVRSSEMADVAQKLEQLEVMMSNVQEDDLSQLATETVHYNPAELYTWLDSMLTDLNSGGSGSGSSGGSGTGPVQQDMLGLKETLEKRYFGESADGNDNICIQVIHNILDIEKILAEYITNAAYAVNNISGLDKDIIGFGKFSTVYTYDEFKDPEHHRAAFNNNDKLINAIKAQYDEFDNFLDNPRLGYFGQAFFSKEGRNYIINYGNECYDILALLSGLRHWVVHNNEEESRISRTWLYNLDKNLDNEYISTLNYLYDRITNELTNSFSKNSAANVNYIAETLGINPAEFAEQYFRFSIMKEQKNLGFNITKLREVMLDRKDMSEIRKNHKVFDSIRTKVYTMMDFVIYRYYIEEDAKVAAANKSLPDNEKSLSEKDIFVINLRGSFNDDQKDALYYDEANRIWRKLENIMHNIKEFRGNKTREYKKKDAPRLPRILPAGRDVSAFSKLMYALTMFLDGKEINDLLTTLINKFDNIQSFLKVMPLIGVNAKFVEEYAFFKDSAKIADELRLIKSFARMGEPIADARRAMYIDAIRILGTNLSYDELKALADTFSLDENGNKLKKGKHGMRNFIINNVISNKRFHYLIRYGDPAHLHEIAKNEAVVKFVLGRIADIQKKQGQNGKNQIDRYYETCIGKDKGKSVSEKVDALTKIITGMNYDQFDKKRSVIEDTGRENAEREKFKKIISLYLTVIYHILKNIVNINARYVIGFHCVERDAQLYKEKGYDINLKKLEEKGFSSVTKLCAGIDETAPDKRKDVEKEMAERAKESIDSLESANPKLYANYIKYSDEKKAEEFTRQINREKAKTALNAYLRNTKWNVIIREDLLRIDNKTCTLFRNKAVHLEVARYVHAYINDIAEVNSYFQLYHYIMQRIIMNERYEKSSGKVSEYFDAVNDEKKYNDRLLKLLCVPFGYCIPRFKNLSIEALFDRNEAAKFDKEKKKVSGNSGSGPKKKRKV

Legend:
[1] = test system: mCherry expression in HEK293 FT cells; assay: Inducible split RfxCas13d (GIB, RAP, ABA, Dano, GRZ CID domains; NES/NLS variants) mCherry knockdown, leakiness and inducibility; assay type: cell-based; details: inducible polypeptide systems of Tables 18-22
Outline: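 mCherry knockdown in HEK293 FT cells by split RfxCas13d halves fused to GIB, RAP, ABA, Dano or GRZ dimerization domains, scored with and without inducer. Leakiness score and induced activity were derived per split site; NES/NLS compartmentalization and reversed CID orientation were also tested.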

mCherry = mCherry knockdown by inducible split RfxCas13d (ON switch) in transfected HEK 293 FT cells, flow cytometry; assay type: cell-based

| Molecule | performance in the tested conditions [1] | further results |
| --- | --- | --- |
| B1 | highest performance |  |
| B2 | highest performance |  |
| B3 | highest performance |  |
| B4 | highest performance |  |
| B5 |  | induced knockdown (mCherry; Danoprevir-inducible, 2 NESs on N terminal moiety and 2 NLSs on C terminal moiety): over 60%; performance after NES/NLS compartmentalization (mCherry; GIB induced split pairs, NES on one moiety, NLS on the other): high inducibility with minimal leakiness; performance of reversed CID orientation versus original orientation (mCherry; GIB: N ss-GAI/GID-ss C, ABA: N ss-PYL/ABI-ss C): stronger inducibility and weaker leakiness; target knockdown efficiency (mCherry; split pair): more than 80%; knockdown across the various CID systems (mCherry; split pairs coupled with CID domains, with inducer): efficient knockdown; also recorded: consistently strong drug-induced knockdown |
| B6 | highest performance |  |
